Data from paper PMC2997501, “Different Residues on the Surface of the Methanothermobacter thermautotrophicus MCM Helicase Interact with Single- and Double-Stranded DNA” (Archaea, 2010).

Target: the molecule itself
Experiment: SEC; 100 micrograms of protein on a superose-6 column (HR10/30); 20 mM Tris-HCl pH 7.5, 150 mM NaCl, 10% glycerol; 22°C, 0.2 ml/min; A280; size markers thyroglobulin, ferritin, albumin, ovalbumin

Row | Protein | binding result
1 | Methanothermobacter thermautotrophicus MCM protein, wild-type (enzyme, UniProt O27798 1-666, looked up, MCM helicase of Methanothermobacter thermautotrophicus, full-length enzyme, cloned in pET-21a (NdeI/XhoI); the text speaks of hexamers, dodecamers and filaments in equilibrium (cited work); also called wild-type enzyme; minichromosome maintenance helicase; source: E. coli DE3 codon plus cells, purified on a Ni-column) MMKTVDKSKTLTKFEEFFSLQDYKDRVFEAIEKYPNVRSIEVDYLDLEMFDPDLADLLIEKPDDVIRAAQQAIRNIDRLRKNVDLNIRFSGISNVIPLRELRSKFIGKFVAVDGIVRKTDEIRPRIVKAVFECRGCMRHHAVTQSTNMITEPSLCSECGGRSFRLLQDESEFLDTQTLKLQEPLENLSGGEQPRQITVVLEDDLVDTLTPGDIVRVTGTLRTVRDERTKRFKNFIYGNYTEFLEQEFEELQISEEDEEKIKELAGDPNIYEKIIRSTAPSIHGYREVKEAIALQLFGGTGKELDDKTRLRGDIHILIVGDPGIGKSQMLKYVSKLAPRGIYTSGKGTSGVGLTAAAVRDEFGGWSLEAGALVLGDKGNVCVDELDKMREEDRSAIHEALEQQTISIAKAGIMATLNSRCSVLAAANPKFGRFDSYKSIAEQIDLPSTILSRFDLIFVVEDKPDEEKDRELARHILKTHKEDHMPFEIDPELLRKYIAYARKNVRPVLTDEAMQVLEDFYVSMRASAADEDSPVPITARQLEALVRLSEASAKIKLKEHVEAEDARKAIKLSQACLKQVGYDPETGKIDIDKVEGRTPKSERDKFRLLLELIKEYEDDYGGRAPTNILITEMMDRYNVSEEKVEELIRILKDKGAIFEPARGYLKIV | binds
2 | Methanothermobacter thermautotrophicus MCM protein, G218A mutant (enzyme, UniProt O27798 1-666, looked up, MCM helicase of Methanothermobacter thermautotrophicus, derivative of the full-length enzyme; source: E. coli DE3 codon plus cells, purified on a Ni-column) MMKTVDKSKTLTKFEEFFSLQDYKDRVFEAIEKYPNVRSIEVDYLDLEMFDPDLADLLIEKPDDVIRAAQQAIRNIDRLRKNVDLNIRFSGISNVIPLRELRSKFIGKFVAVDGIVRKTDEIRPRIVKAVFECRGCMRHHAVTQSTNMITEPSLCSECGGRSFRLLQDESEFLDTQTLKLQEPLENLSGGEQPRQITVVLEDDLVDTLTPGDIVRVTATLRTVRDERTKRFKNFIYGNYTEFLEQEFEELQISEEDEEKIKELAGDPNIYEKIIRSTAPSIHGYREVKEAIALQLFGGTGKELDDKTRLRGDIHILIVGDPGIGKSQMLKYVSKLAPRGIYTSGKGTSGVGLTAAAVRDEFGGWSLEAGALVLGDKGNVCVDELDKMREEDRSAIHEALEQQTISIAKAGIMATLNSRCSVLAAANPKFGRFDSYKSIAEQIDLPSTILSRFDLIFVVEDKPDEEKDRELARHILKTHKEDHMPFEIDPELLRKYIAYARKNVRPVLTDEAMQVLEDFYVSMRASAADEDSPVPITARQLEALVRLSEASAKIKLKEHVEAEDARKAIKLSQACLKQVGYDPETGKIDIDKVEGRTPKSERDKFRLLLELIKEYEDDYGGRAPTNILITEMMDRYNVSEEKVEELIRILKDKGAIFEPARGYLKIV | binds
3 | Methanothermobacter thermautotrophicus MCM protein, G211A mutant (enzyme, UniProt O27798 1-666, looked up, MCM helicase of Methanothermobacter thermautotrophicus, derivative of the full-length enzyme; source: E. coli DE3 codon plus cells, purified on a Ni-column) MMKTVDKSKTLTKFEEFFSLQDYKDRVFEAIEKYPNVRSIEVDYLDLEMFDPDLADLLIEKPDDVIRAAQQAIRNIDRLRKNVDLNIRFSGISNVIPLRELRSKFIGKFVAVDGIVRKTDEIRPRIVKAVFECRGCMRHHAVTQSTNMITEPSLCSECGGRSFRLLQDESEFLDTQTLKLQEPLENLSGGEQPRQITVVLEDDLVDTLTPADIVRVTGTLRTVRDERTKRFKNFIYGNYTEFLEQEFEELQISEEDEEKIKELAGDPNIYEKIIRSTAPSIHGYREVKEAIALQLFGGTGKELDDKTRLRGDIHILIVGDPGIGKSQMLKYVSKLAPRGIYTSGKGTSGVGLTAAAVRDEFGGWSLEAGALVLGDKGNVCVDELDKMREEDRSAIHEALEQQTISIAKAGIMATLNSRCSVLAAANPKFGRFDSYKSIAEQIDLPSTILSRFDLIFVVEDKPDEEKDRELARHILKTHKEDHMPFEIDPELLRKYIAYARKNVRPVLTDEAMQVLEDFYVSMRASAADEDSPVPITARQLEALVRLSEASAKIKLKEHVEAEDARKAIKLSQACLKQVGYDPETGKIDIDKVEGRTPKSERDKFRLLLELIKEYEDDYGGRAPTNILITEMMDRYNVSEEKVEELIRILKDKGAIFEPARGYLKIV | binds
4 | Methanothermobacter thermautotrophicus MCM protein, Q176A mutant (enzyme, UniProt O27798 1-666, looked up, MCM helicase of Methanothermobacter thermautotrophicus, derivative of the full-length enzyme; source: E. coli DE3 codon plus cells, purified on a Ni-column) MMKTVDKSKTLTKFEEFFSLQDYKDRVFEAIEKYPNVRSIEVDYLDLEMFDPDLADLLIEKPDDVIRAAQQAIRNIDRLRKNVDLNIRFSGISNVIPLRELRSKFIGKFVAVDGIVRKTDEIRPRIVKAVFECRGCMRHHAVTQSTNMITEPSLCSECGGRSFRLLQDESEFLDTATLKLQEPLENLSGGEQPRQITVVLEDDLVDTLTPGDIVRVTGTLRTVRDERTKRFKNFIYGNYTEFLEQEFEELQISEEDEEKIKELAGDPNIYEKIIRSTAPSIHGYREVKEAIALQLFGGTGKELDDKTRLRGDIHILIVGDPGIGKSQMLKYVSKLAPRGIYTSGKGTSGVGLTAAAVRDEFGGWSLEAGALVLGDKGNVCVDELDKMREEDRSAIHEALEQQTISIAKAGIMATLNSRCSVLAAANPKFGRFDSYKSIAEQIDLPSTILSRFDLIFVVEDKPDEEKDRELARHILKTHKEDHMPFEIDPELLRKYIAYARKNVRPVLTDEAMQVLEDFYVSMRASAADEDSPVPITARQLEALVRLSEASAKIKLKEHVEAEDARKAIKLSQACLKQVGYDPETGKIDIDKVEGRTPKSERDKFRLLLELIKEYEDDYGGRAPTNILITEMMDRYNVSEEKVEELIRILKDKGAIFEPARGYLKIV | binds
5 | Methanothermobacter thermautotrophicus MCM protein, P210G mutant (enzyme, UniProt O27798 1-666, looked up, MCM helicase of Methanothermobacter thermautotrophicus, derivative of the full-length enzyme; source: E. coli DE3 codon plus cells, purified on a Ni-column) MMKTVDKSKTLTKFEEFFSLQDYKDRVFEAIEKYPNVRSIEVDYLDLEMFDPDLADLLIEKPDDVIRAAQQAIRNIDRLRKNVDLNIRFSGISNVIPLRELRSKFIGKFVAVDGIVRKTDEIRPRIVKAVFECRGCMRHHAVTQSTNMITEPSLCSECGGRSFRLLQDESEFLDTQTLKLQEPLENLSGGEQPRQITVVLEDDLVDTLTGGDIVRVTGTLRTVRDERTKRFKNFIYGNYTEFLEQEFEELQISEEDEEKIKELAGDPNIYEKIIRSTAPSIHGYREVKEAIALQLFGGTGKELDDKTRLRGDIHILIVGDPGIGKSQMLKYVSKLAPRGIYTSGKGTSGVGLTAAAVRDEFGGWSLEAGALVLGDKGNVCVDELDKMREEDRSAIHEALEQQTISIAKAGIMATLNSRCSVLAAANPKFGRFDSYKSIAEQIDLPSTILSRFDLIFVVEDKPDEEKDRELARHILKTHKEDHMPFEIDPELLRKYIAYARKNVRPVLTDEAMQVLEDFYVSMRASAADEDSPVPITARQLEALVRLSEASAKIKLKEHVEAEDARKAIKLSQACLKQVGYDPETGKIDIDKVEGRTPKSERDKFRLLLELIKEYEDDYGGRAPTNILITEMMDRYNVSEEKVEELIRILKDKGAIFEPARGYLKIV | binds
6 | Methanothermobacter thermautotrophicus MCM protein, PG210,211GA double mutant (enzyme, UniProt O27798 1-666, looked up, MCM helicase of Methanothermobacter thermautotrophicus, derivative of the full-length enzyme; source: E. coli DE3 codon plus cells, purified on a Ni-column) MMKTVDKSKTLTKFEEFFSLQDYKDRVFEAIEKYPNVRSIEVDYLDLEMFDPDLADLLIEKPDDVIRAAQQAIRNIDRLRKNVDLNIRFSGISNVIPLRELRSKFIGKFVAVDGIVRKTDEIRPRIVKAVFECRGCMRHHAVTQSTNMITEPSLCSECGGRSFRLLQDESEFLDTQTLKLQEPLENLSGGEQPRQITVVLEDDLVDTLTGADIVRVTGTLRTVRDERTKRFKNFIYGNYTEFLEQEFEELQISEEDEEKIKELAGDPNIYEKIIRSTAPSIHGYREVKEAIALQLFGGTGKELDDKTRLRGDIHILIVGDPGIGKSQMLKYVSKLAPRGIYTSGKGTSGVGLTAAAVRDEFGGWSLEAGALVLGDKGNVCVDELDKMREEDRSAIHEALEQQTISIAKAGIMATLNSRCSVLAAANPKFGRFDSYKSIAEQIDLPSTILSRFDLIFVVEDKPDEEKDRELARHILKTHKEDHMPFEIDPELLRKYIAYARKNVRPVLTDEAMQVLEDFYVSMRASAADEDSPVPITARQLEALVRLSEASAKIKLKEHVEAEDARKAIKLSQACLKQVGYDPETGKIDIDKVEGRTPKSERDKFRLLLELIKEYEDDYGGRAPTNILITEMMDRYNVSEEKVEELIRILKDKGAIFEPARGYLKIV | binds
7 | Methanothermobacter thermautotrophicus MCM protein, V214A mutant (enzyme, UniProt O27798 1-666, looked up, MCM helicase of Methanothermobacter thermautotrophicus, derivative of the full-length enzyme; source: E. coli DE3 codon plus cells, purified on a Ni-column) MMKTVDKSKTLTKFEEFFSLQDYKDRVFEAIEKYPNVRSIEVDYLDLEMFDPDLADLLIEKPDDVIRAAQQAIRNIDRLRKNVDLNIRFSGISNVIPLRELRSKFIGKFVAVDGIVRKTDEIRPRIVKAVFECRGCMRHHAVTQSTNMITEPSLCSECGGRSFRLLQDESEFLDTQTLKLQEPLENLSGGEQPRQITVVLEDDLVDTLTPGDIARVTGTLRTVRDERTKRFKNFIYGNYTEFLEQEFEELQISEEDEEKIKELAGDPNIYEKIIRSTAPSIHGYREVKEAIALQLFGGTGKELDDKTRLRGDIHILIVGDPGIGKSQMLKYVSKLAPRGIYTSGKGTSGVGLTAAAVRDEFGGWSLEAGALVLGDKGNVCVDELDKMREEDRSAIHEALEQQTISIAKAGIMATLNSRCSVLAAANPKFGRFDSYKSIAEQIDLPSTILSRFDLIFVVEDKPDEEKDRELARHILKTHKEDHMPFEIDPELLRKYIAYARKNVRPVLTDEAMQVLEDFYVSMRASAADEDSPVPITARQLEALVRLSEASAKIKLKEHVEAEDARKAIKLSQACLKQVGYDPETGKIDIDKVEGRTPKSERDKFRLLLELIKEYEDDYGGRAPTNILITEMMDRYNVSEEKVEELIRILKDKGAIFEPARGYLKIV | binds
8 | Methanothermobacter thermautotrophicus MCM protein, D212N mutant (enzyme, UniProt O27798 1-666, looked up, MCM helicase of Methanothermobacter thermautotrophicus, derivative of the full-length enzyme; source: E. coli DE3 codon plus cells, purified on a Ni-column) MMKTVDKSKTLTKFEEFFSLQDYKDRVFEAIEKYPNVRSIEVDYLDLEMFDPDLADLLIEKPDDVIRAAQQAIRNIDRLRKNVDLNIRFSGISNVIPLRELRSKFIGKFVAVDGIVRKTDEIRPRIVKAVFECRGCMRHHAVTQSTNMITEPSLCSECGGRSFRLLQDESEFLDTQTLKLQEPLENLSGGEQPRQITVVLEDDLVDTLTPGNIVRVTGTLRTVRDERTKRFKNFIYGNYTEFLEQEFEELQISEEDEEKIKELAGDPNIYEKIIRSTAPSIHGYREVKEAIALQLFGGTGKELDDKTRLRGDIHILIVGDPGIGKSQMLKYVSKLAPRGIYTSGKGTSGVGLTAAAVRDEFGGWSLEAGALVLGDKGNVCVDELDKMREEDRSAIHEALEQQTISIAKAGIMATLNSRCSVLAAANPKFGRFDSYKSIAEQIDLPSTILSRFDLIFVVEDKPDEEKDRELARHILKTHKEDHMPFEIDPELLRKYIAYARKNVRPVLTDEAMQVLEDFYVSMRASAADEDSPVPITARQLEALVRLSEASAKIKLKEHVEAEDARKAIKLSQACLKQVGYDPETGKIDIDKVEGRTPKSERDKFRLLLELIKEYEDDYGGRAPTNILITEMMDRYNVSEEKVEELIRILKDKGAIFEPARGYLKIV | binds
